From patent publication US11419921B2, “Methods of treating neurological disorders” (EnClear Therapies, Inc., priority 2018, dated 2022)

B1: Clostripain: sulfhydryl protease cleaving at the C-terminus of arginine residues; in Table 23 also immobilized on agarose resin (protein)
chain: NKNQKVTIMYYCDADNNLEGSLLNDIEEMKTGYKDSPNLNLIALVDRSPRYSSDEKVLGEDFSDTRLYKIEHNKANRLDGKNEFPEISTTSKYEANMGDPEVLKKFIDYCKSNYEADKYVLIMANHGGGAREKSNPRLNRAICWDDSNLDKNGEADCLYMGEISDHLTEKQSVDLLAFDACLMGTAEVAYQYRPGNGGFSADTLVASSPVVWGPGFKYDKIFDRIKAGGGTNNEDDLTLGGKEQNFDPATITNEQLGALFVEEQRDSTHANGRYDQHLSFYDLKKAESVKRAIDNLAVNLSNENKKSEIEKLRGSGIHTDLMHYFDEYSEGEWVEYPYFDVYDLCEKINKSENFSSKTKDLASNAMNKLNEMIVYSFGDPSNNFKEGKNGLSIFLPNGDKKYSTYYTSTKIPHWTMQSWYNSIDTVKYGLNPYGKLSWCKDGQDPEINKVGNWFELLDSWFDKTNDVTGGVNHYQW
B2: Trypsin: protease cleaving at the carboxyl side of lysine or arginine; in Table 21 also immobilized in-house on NHS-activated agarose resin (protein, UniProt P00760 24-246, looked up)
Serine protease 1: IVGGYTCGANTVPYQVSLNSGYHFCGGSLINSQWVVSAAHCYKSGIQVRLGEDNINVVEGNEQFISASKSIVHPSYNSNTLNNDIMLIKLKSAASLNSRVASISLPTSCASAGTQCLISGWGNTKSSGTSYPDVLKCLKAPILSDSSCKSAYPGQITSNMFCAGYLEGGKDSCQGDSGGPVVCSGKLQGIVSWGSGCAQKNKPGVYTKVCNYVSWIKQTIASN

Test system: (GR)10
Experiment: (GR)10 digestion with immobilized proteases (NHS-activated agarose resin) in PBS
Format: biochemical
Settings: normalized
Procedure: Protease solutions were prepared at 2 mg/mL in sterile PBS with calcium, magnesium and 200 μL ([…]) were applied to 100 μL of pre-washed NHS-activated agarose resin in 0.8 mL centrifuge columns. Reactions were left 1.5 hour at room temperature with end-to-end mixing, after which resins were washed with 12 resin volumes of PBS. Unreacted sites were blocked with 500 μL of 1M ethanolamine for 15 minutes at room temperature and resins were further washed with 24 resin volumes. Resins were stored at 4 degrees in 500 μL of PBS containing 0.05% sodium azide as preservative.
110 μL of 50 μM (GR)10 dipeptide repeats prepared in PBS were added to each immobilized protease and incubated 5 minutes at room temperature with end-to-end mixing. Columns were spun down 1 minute at 1,000 Xg to recover digested GR dipeptides. Columns were washed with 110 μL of PBS to increase (GR)10 recovery. This procedure was repeated with 60 minutes digestion time. 100 μL of each samples were transferred to a new tube and 5 μL of 10% TFA followed by 300 μL of Dilution Solution were added. The reaction mixtures were analyzed by LC/MS to determine the concentration of GR repeats of different lengths.

[1] = resin wash from 60 min reaction

Molecule	(GR)1 (Immobilized - 5 min reaction) [µM]	(GR)2 (Immobilized - 5 min reaction) [µM]	(GR)3 (Immobilized - 5 min reaction) [µM]	(GR)4 (Immobilized - 5 min reaction) [µM]	(GR)5 (Immobilized - 5 min reaction) [µM]	(GR)6 (Immobilized - 5 min reaction) [µM]	(GR)8 (Immobilized - 5 min reaction) [µM]	(GR)10 (Immobilized - 5 min reaction) [µM]	(GR)1 (immobilized - 60 min reaction) [µM]	(GR)2 (immobilized - 60 min reaction) [µM]	(GR)3 (immobilized - 60 min reaction) [µM]	(GR)4 (immobilized - 60 min reaction) [µM]	(GR)5 (immobilized - 60 min reaction) [µM]	(GR)6 (immobilized - 60 min reaction) [µM]	(GR)8 (immobilized - 60 min reaction) [µM]	(GR)10 (immobilized - 60 min reaction) [µM]	(GR)1 (resin wash from 5 min reaction) [µM]	(GR)2 (resin wash from 5 min reaction) [µM]	(GR)3 (resin wash from 5 min reaction) [µM]	(GR)4 (resin wash from 5 min reaction) [µM]	also measured
B1	296.5	0.0	0.0	0.0	0.0	0.0	0.0	0.0	305.9	0.0	0.0	0.0	0.0	0.0	0.0	0.0	140.2	0.0	0.0	0.0	(GR)5 (resin wash from 5 min reaction): 0.0 µM; (GR)6 (resin wash from 5 min reaction): 0.0 µM; (GR)8 (resin wash from 5 min reaction): 0.0 µM; (GR)10 (resin wash from 5 min reaction): 0.0 µM; (GR)1 [1]: 155.8 µM; (GR)2 [1]: 0.0 µM; (GR)3 [1]: 0.0 µM; (GR)4 [1]: 0.0 µM; (GR)5 [1]: 0.0 µM; (GR)6 [1]: 0.0 µM; (GR)8 [1]: 0.0 µM; (GR)10 [1]: 0.0 µM
B2	308.8	0.0	0.0	0.0	0.0	0.0	0.0	0.0	321.8	0.0	0.0	0.0	0.0	0.0	0.0	0.0	140.2	0.0	0.0	0.0	(GR)5 (resin wash from 5 min reaction): 0.0 µM; (GR)6 (resin wash from 5 min reaction): 0.0 µM; (GR)8 (resin wash from 5 min reaction): 0.0 µM; (GR)10 (resin wash from 5 min reaction): 6.6 µM; (GR)1 [1]: 144.6 µM; (GR)2 [1]: 0.0 µM; (GR)3 [1]: 0.0 µM; (GR)4 [1]: 0.0 µM; (GR)5 [1]: 0.0 µM; (GR)6 [1]: 0.0 µM; (GR)8 [1]: 0.0 µM; (GR)10 [1]: 0.0 µM
